{"source": "paper PMC5768779", "system": "USP48 (isoform 1)", "assay": "EMSA", "settings": "50 nM NCP, estimated from first distinct shift, higher species above 4 uM, EMSA: 50 nM NCP, native gel, SPR: immobilized nucleosomes, 10 successive USP48 injections, one-phase binding fit, binding buffer, pH and temperature not in …", "data": [{"substance": "NCP H2A-BRCA1ub (multi-monoubiquitinated, Widom 601, 147 bp)", "values": [{"measurement": "Kd", "setting": "histone H2A multi-monoubiquitinated at the C-terminal BRCA1 site (K125/K127/K129), DNA unmodified", "result": 1000, "unit": "nM"}]}, {"substance": "NCP unmodified (Widom 601, 147 bp)", "values": [{"measurement": "Kd", "result": 1000, "unit": "nM"}]}]}
